The results in this text go back to publication doi:10.1101/2020.08.28.272104.

The target in this test is triple-helical collagen peptide Ac-(GPO)2-GPO-GPQ-GLA-GQR-GIV-GLO-GQR-GER-(GPO)3G-NH2. Briefly: ITC.

pKd: −log10 of the molar value.

As for “MMP-1(E200A), active-site mutant of matrix metalloproteinase 1 (enzyme)”, the pKd was 6.30 to 6.60 and the stoichiometry N came out at 1.
